T1: recombinant human C2a, C-terminal 6His-tag, made in house (CHO cell expression) (human, UniProt P06681 244-752)
T1 sequence: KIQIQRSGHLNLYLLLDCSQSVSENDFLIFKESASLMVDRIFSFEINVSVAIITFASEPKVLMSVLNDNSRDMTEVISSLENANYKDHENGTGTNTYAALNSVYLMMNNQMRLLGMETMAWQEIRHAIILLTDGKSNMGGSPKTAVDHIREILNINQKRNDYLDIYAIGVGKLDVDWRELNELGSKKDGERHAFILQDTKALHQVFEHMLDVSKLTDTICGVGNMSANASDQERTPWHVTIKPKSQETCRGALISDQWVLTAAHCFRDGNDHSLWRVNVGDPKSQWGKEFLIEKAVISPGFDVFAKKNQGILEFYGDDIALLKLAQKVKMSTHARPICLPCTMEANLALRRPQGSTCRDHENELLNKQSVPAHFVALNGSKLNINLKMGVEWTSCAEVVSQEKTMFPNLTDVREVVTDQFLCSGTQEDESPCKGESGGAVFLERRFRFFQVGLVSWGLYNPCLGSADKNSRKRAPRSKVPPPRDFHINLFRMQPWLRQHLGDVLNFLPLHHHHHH

T2: recombinant human complement C2 (NP_000054.2), C-terminal 6His-tag, made in house (CHO cell expression) (human, UniProt P06681 21-752)
T2 construct: a linker before the tag is not described; also called human C2; Human C2
T2 sequence: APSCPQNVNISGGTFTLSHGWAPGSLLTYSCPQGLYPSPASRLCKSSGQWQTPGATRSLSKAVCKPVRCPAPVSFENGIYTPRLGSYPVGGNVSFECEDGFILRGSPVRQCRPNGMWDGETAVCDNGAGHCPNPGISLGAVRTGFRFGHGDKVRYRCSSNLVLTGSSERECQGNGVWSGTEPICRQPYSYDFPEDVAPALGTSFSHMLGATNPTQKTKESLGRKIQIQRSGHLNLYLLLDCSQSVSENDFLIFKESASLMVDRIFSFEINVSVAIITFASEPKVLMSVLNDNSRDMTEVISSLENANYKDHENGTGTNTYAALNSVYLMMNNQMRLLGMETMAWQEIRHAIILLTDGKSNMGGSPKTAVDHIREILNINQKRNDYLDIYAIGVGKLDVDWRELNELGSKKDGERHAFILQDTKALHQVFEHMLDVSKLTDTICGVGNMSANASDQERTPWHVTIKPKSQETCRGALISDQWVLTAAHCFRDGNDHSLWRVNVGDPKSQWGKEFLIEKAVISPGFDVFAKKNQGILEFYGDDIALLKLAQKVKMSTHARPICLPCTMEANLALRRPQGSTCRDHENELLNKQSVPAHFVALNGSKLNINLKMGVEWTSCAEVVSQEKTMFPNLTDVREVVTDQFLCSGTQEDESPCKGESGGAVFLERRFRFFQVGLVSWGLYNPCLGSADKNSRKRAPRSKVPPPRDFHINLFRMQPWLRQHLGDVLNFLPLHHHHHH

T3: recombinant cynomolgus (cyno) complement C2 (XP_005553508.1), C-terminal 6His-tag, made in house (CHO cell … (cynomolgus monkey (Macaca fascicularis), UniProt P06681 21-752 (human entry)))
T3 construct: also called cyno C2; Cyno C2
T3 chain: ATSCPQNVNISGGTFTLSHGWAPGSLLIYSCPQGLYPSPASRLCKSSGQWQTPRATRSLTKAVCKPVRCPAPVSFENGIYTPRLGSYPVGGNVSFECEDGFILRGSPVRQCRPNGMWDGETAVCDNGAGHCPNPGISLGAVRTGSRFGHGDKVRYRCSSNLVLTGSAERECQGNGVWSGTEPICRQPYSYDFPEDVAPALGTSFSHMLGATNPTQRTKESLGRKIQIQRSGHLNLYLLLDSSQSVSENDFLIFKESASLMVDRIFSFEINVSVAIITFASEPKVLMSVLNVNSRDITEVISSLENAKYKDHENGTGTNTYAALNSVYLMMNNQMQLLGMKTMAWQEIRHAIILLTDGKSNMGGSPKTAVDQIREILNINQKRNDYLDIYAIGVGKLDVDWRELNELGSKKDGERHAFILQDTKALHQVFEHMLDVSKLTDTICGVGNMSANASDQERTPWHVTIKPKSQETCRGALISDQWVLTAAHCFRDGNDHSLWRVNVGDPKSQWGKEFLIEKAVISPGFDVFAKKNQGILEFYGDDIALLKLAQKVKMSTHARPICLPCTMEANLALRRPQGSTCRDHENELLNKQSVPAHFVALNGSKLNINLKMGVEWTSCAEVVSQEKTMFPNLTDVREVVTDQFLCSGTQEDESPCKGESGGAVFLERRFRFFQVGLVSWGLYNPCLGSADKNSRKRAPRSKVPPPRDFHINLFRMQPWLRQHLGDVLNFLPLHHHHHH

B1: anti-C2 antibody 3.2 (antibody, IgG4, V domains shown)
VH: EVQLLESGGGLVQPGGSLRLSCAASGFTFRHYAMSWVRQAPGKGLEWVSLISGSGASTFYADSVKGRFTISRDNSENMLYLQMNSLRAEDTAVYYCAKDSLAVAGSEYFQHWGQGTLVTVSS
VL: SYVLTQAPSVSVAPGQTARITCGGNYFGGKSVHWYQQRPGQAPVLVVYDDSDRPSGIPERFSGSKSGNTATLAISRVEAGDEAAYYCQVYDTSSDHWVFGGGTKLTVL
notes: Recombinant; also called WT; "WT" 3.2
B2: anti-C2 antibody 69.44 (antibody, IgG4, V domains shown)
VH: QVQLVQSGAEVKKPGASVKVSCKASGYSFTTYYMYWVRQAPGQGLEWMGIITPSGGSTTYAQKFQDRVTMTRDASTTTVYMELSSLRSEDTAVYYCARGYEGSYGFDHWGQGTLVTVSS
VL: SYELTQPPSVSLSPGQTASITCSGDKLGNKYTCWYQQKPGQSPVLVIYQDNKRPSGIPERFSGSNSGNTATLTISGTQAMDEADYYCQTWDSSTAVFGGGTKLTVL
notes: Recombinant

Assays:
[1] = target: T1, recombinant human C2a, C-terminal …; test: ELISA on human C2a, OD450nm against log Ab conc. (nmol/L)
[2] = target: T2, recombinant human complement C2 …; test: BLI (Gator); ratio of dissociation at pH 5.8 to pH 7.4
Procedure: (§1) The histidine mutant constructs in Table 4 were tested for their pH-dependent dissociation from human C2. Probe-immobilized anti-C2 antibodies were incubated with C2 at pH 7.4 for 600s, followed by a 600s dissociation period in K Buffer at pH 7.4 or pH 5.8. The data were processed and analyzed by the Gator evaluation software.
(§2) Non-fusion mAb were used for comparison.

[3] = target: T3, recombinant cynomolgus (cyno) …; test: as above
Procedure: as §1, §2

[4] = target: T3, recombinant cynomolgus (cyno) …; test: binding kinetics (BLI presumed)
[5] = target: T2, recombinant human complement C2 …; test: BLI (Gator), antibody on probe; 600 s association at pH 7.4, 600 s dissociation at pH 7.4
Procedure: as §1, §2

[6] = target: T3, recombinant cynomolgus (cyno) …; test: as above
Procedure: as §1, §2

Row | Binder | binding result [1] | Fold dissociation pH 5.8/pH 7.4 [2] [fold] | Fold dissociation pH 5.8/pH 7.4 [3] [fold] | Kd [4] [nM] | koff [4] [s⁻¹] | kon [4] [M⁻¹ s⁻¹] | Dissociation (%) pH 7.4 [5] [%] | Dissociation (%) pH 7.4 [6] [%]
1 | B1 | no binding (tested: 100 nmol/L) | 1.97 | 2.7 | 0.126 | 5.82e-05 | 461000 | 5.27 | 5.37
2 | B2 |  | 0.78 | 1.5 | 0.304 | 5.89e-05 | 194000 | 3.15 | 4.81
